Results: the nanobody polyreactivity screen of Harvey et al. (2022)

Assay: yeast display, Sf9 membrane polyspecificity reagent, FACS + sequencing; frameworks hold sequencing errors
In short: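 Genes from sorted yeast were amplified by colony PCR, read by MiSeq 2 × 250 sequencing and filtered on CDR length. These cells carried a synthetic nanobody library in Saccharomyces cerevisiae BJ5465 and were sorted by FACS into low and high (top ~1%) gates on anti-HA and streptavidin fluorescence. Polyreactivity is labelled according to the gate of origin.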

Sequence	polyreactivity (PSR sort gate)
QVQLVESGGGLVQAGGSLRLSCAASGYIFQDYAMGWYRQAPAKERELVARISAGGGRTYYADSVKGRFTISRENAMNTVYLQMNSLKPEDTAVYYCAAPLSYSWVYIVRYGYDYWGQGTQVTVSS	low polyreactivity
QVQLVESGGGLVQAGGSLRLSCAASGSIFGVYAMGWYIPAPGTERELVAAISRGGSTNDADSVKGRFTISRDNEKNTVYLQMNSLKPEDTAVYYCNAVPVLGGYGYQWGYDYWGQGTKVTVSS	low polyreactivity
QVQLVESGGGLVQAGGSLRLSCAASGRTYPYYAMGWYRQAPGKEREVVAAITYRGGSTSYADSVKGRFTISRDNAKNTVDLQMNSLKPEDTAVYYCAARTWNRRSPYDYWGQGTQVTVSS	high polyreactivity
QVQLVESGGGLVQAGGSLRLSCAASGFTFSRYAMGWYRQAPGKERELVAAITRRGGRTYYADSVKGRFTISRDNAKNTVFLQMNSLKPEDTAVYYCITDAYRLGYDYWGQGTQVTVSS	high polyreactivity
QVQLVESGGGLVQAGGSLRLSCAASGSIYRYYDMGWYRQAPGKERELVAAITYSGGGTYYADSVKGRFTISRDNAKNTVYLQMNSLKPEDTAVYYCAAEPYYGWKRLDYWGQVTQVTVSS	low polyreactivity
QVQLVESGGGLVQAGGSLRLSCAASGRTFEYNAMGWYRQAPGKERELVAAISSSGGSTRYADSVKGRFTISRDNAKNTVYLQMNSLKPEDTAVYYCAKRGYTSSRRWIYDYRGQGTQVTVSS	high polyreactivity
QVQLEESGGGLVQAGGSLRLSCAASGSTFYLYDMGWYRQAPGKERELVATITSATSTTYADSVKGRFTISRDNATNTVYLQMNSLNPEHTAVYYCNATDVGIITVGYGHGGYYWGQGTQVTVSS	low polyreactivity
QVQLVESGGGLVQAGGSLRLSCAASGYTLSFNAMGWYRQAPGKARELVAGITYSGGSTYYSDSVKGRFTISRDNAKNTVYLQMTSLKPEDTAVYYCNKASGVYYGHLDYWGQGTQVTVSS	low polyreactivity
QVQLVESGGGLVQAGGSLRLSSAASGGIFQLYAMGWYRQAPGKERELVADISRSGGSTYYADSVKGRFTISRDTAKNTVYLQMNSLKPEDTAVYYCAARYWTSIVRYRGDYWGQGTQVTVSS	high polyreactivity
QVQLVESGGGSLRLSCAASGLTFGGYTMGWSRQAPGKERELFAAISSSDSTNYADSVKGRFTISRDNAKNTVYLQMNSLKPEDTAVYYCAADSGQWCRFSSFGDEGDSWGQGTQVTVSS	low polyreactivity
QVQLVESGGGLVQAGGSLRLSCAASGFTLEFSAMGWYRQAPGKERELVASISSGGRTNYADSVKGRFTISRDNAKNTVYLQMYSLKPVDTAVYYCAAEYRSWGRYRYRFNYWGQGTQVTVSS	high polyreactivity
QVQLVESGGGLVQAGGSLRLSCAASGSTFYNAMGWYIQAPGKERELVAGISRNGGSTRYADSVKGRFTISRDNAKNTVYLQSHSQKPEDTAVSYCAAGYYDYGWDYANDYWGQGTQVTVSS	low polyreactivity
QVQLVDSGGGLVQAGGSLRLSCAASGSTFRRNAMGWYRHAPGKERELVAAINRRGGDTYYADSVKGRFTISCDNAKNTVYLQMNSLKPEDTAVYYCAAEWQSVAFDWGGYGDDYWGQGTQVTVSS	low polyreactivity
QVQLVESGGGLVQAGGSLRLSCAASGRIFLPYAMGWYRQAPGKERELVAAITQSGVITSYADSVKGRFTISRDNAKNTVYLQMNSLKPVDTAVYYCATVRTVIVFRFPYSYGYWGQGTQVTVSS	high polyreactivity
QVQLVESGGGLVQAGGSLRLSCAASGRTFRGYAMGWYRQAPGKERELVAAITWSGGRTYYADSVKGRFTISRDNAKNTVYLQMNSLKPEDTAVYYCATSPGRWGWGYDYEYWGQGTQVTVSS	low polyreactivity
QVQLVESGGRLVQAGGSLRLSCAASGFTFPTYAMGWYRQAPGKERELVAAITRGGSTYYADSVKGRFTISRDNAKNTVYLQMNSLKPEDTAVYYCAADDPWYEEDYWGQGTQVTVSS	low polyreactivity

Sequence	polyreactivity (PSR sort gate)
QVQLVESGGGLVQAGGSLRLSCAASGFTFHRNAMGWYRQAPGKERELVAAISTRGGSTAYADSVKGRFTISRDTAKNNVYLQMNSLKPEDTAVYYCNTRYVGQRSTWVDQVRRYDYWGQGTQVTVSS	high polyreactivity
QVQLVESGGGLVQAGGSLRLSCPSSGFTFSAYAMGWYRQAPGKERELVAAISTRGGSTRYADSVKGRFTISRDNAKNTVNVQMNSLTPDDTAVYYCAADTRSFYRYDYWGQGTQVTVSS	high polyreactivity
QVQLVESGGGLVQAGGSLRISCAASGSTFQLYSMGWSRQAPGKEREFVAAITYSGGGSTSYADSVKGRFTISRDNAKNTVYLQMNSLKPEDTAVFYCAARDFETDGYTLVAYNYWGQGSQVTVSS	low polyreactivity
QVQLVESGGCLVQAGGSLRLSCAASGLTFGSYGMGWYRQAPGKERELVAAITATGGSTYYADSVKGRFTISRDNAKNTVYLQMNSLKPEDTAVYYCAATRRSKVWLYGYWGQGTQVTVSS	high polyreactivity
QVQLVESGGGLVQAGGSLRLSCAASGSIFYYYAMGWYRLAAGKERELVAAINSGGSTYADSVKGRFSISRDNAKNTVYLQMNSLIPEDSAVYYSATDIHSVDNNRDKHDYDYWGQGTQVTVSS	low polyreactivity
QVQLVESGGGLVQAGGSLRLSCAASGLIFDTNAMGWYRQAPGKERELVAAISLDGGSTYYADSVKGRFTISRDNAKNTVYLQMNSLKPEDTAVYYCNADYYANSITYDSWGQGTQVTVSS	low polyreactivity
QVQLVESGGGLVQAGGSLRLSCAASGFIFYYYTMGWYRQAPGKEREFVAAISSSGTITYYADSVKGRFTISRDNAKNTVYLQMNSLKPEDTAVYYCNAELYYPYEFWRFSGYDYWGQGTQVTVSS	low polyreactivity
QVQLVESGGGLVQAGGSLRLSSAASGSTFRYNTMGWYRQAPGKERELVAAINISSSSTYYADSVKGRFTISRDNAKNTVYFQINSLKPEDTAVYYCAKRDYVPIATDENDDYWGQGTQVTVSS	low polyreactivity
QGQLVESAGGLVQAGGSLRLSCAASGSTFDYYTIGWYRQAPGKERELVAAISSSGGSTYYADSVKGRFTISRANAKNTVYLQMNSLKPVDTAVYYCAAKWDWGYGRGFQYGFNYWGQGTQVTVSS	low polyreactivity
QVQLVESGGGLVQAGGSLRLSCAASGSTFPGNAMGWYRQAPGKERELVASISGGGDSTYYADSVKGRFTISRDNAKNTVYLQMNSLKPEDTAVYYCAADYRQEPGYTGYYYWGQGTQLTVSS	low polyreactivity
QVQLVESGGGLVQAGGSLRLSCAASGFIFTYNTMGWDRQAPGKERELVAAISLRGGNTYYADSVKGRFTISRDNAKNTVYLQMHSLKPEDTAVYYCAALGKYRSGNYFGQGTQVTVSS	high polyreactivity
QVQLVESGGGLVQAGGSLRLSCAASGFQYGMGWYRQAPGKERELVAAISRDGSTNYADSVKGRFTISRDNAKNTVYLQMNSLKPEDTAVYYCAVDFYFLYGWGQGTQVTVSS	low polyreactivity
QVQLVESGGGLVQAGGSLRLSCAASGRIFSYAMGWYRQAPGKERELVAAITRRGSTYYADSVKGRFTISRDNAKNTVYLQMKSLKPEDTAVYYCAADIYYSRTFYPMGYWGQGTQVTVSS	high polyreactivity
QVQLVESGGGLVQAGGSLRLSCAASGSIFLYYAMGWYRQAPGNERELVAGINRVGSTNYADSVKGRFTISRDNAKNTVYLQMNSLKPEDTAVYYCNKRATRSRRRGYWGQGTQVTVSS	low polyreactivity
QVQLVESGGGLFQAGGSLRLSCAASGITLYLYVMGWYRQAPGIEREFVAAIRWSGGSTYYADSVKGRFTISRDNAKYTVYLLMNSLKPEDTAVYYCAVTYVGHVYEYYYWGQGTQVTVSS	low polyreactivity
